This is an account of results in the RNAGym collection of RNA variant scans (doi:10.1073/pnas.2313332121).

First the molecules themselves.
B1: TPR t1 (parent)
chain: GACCAAUCUGCCCUCAGAGCUCGAGAACAUCUUCGGAUGCAGAGGAGGCAGGCUUCGGUGGCGCGAUAGCGCCAACGUCCUCAACCUCCAAUGCAUCCCACCACAUGAUGAUGCCUGAAGAGCCUUGGUUUUUUG

The variants in the data set derive from B1. Kind of data set: polymerase ribozyme fitness, log enrichment relative to wild type (log ratio); higher = more active; in vitro selection for triplet polymerase activity. Summed up:
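Each subunit of a heterodimeric triplet polymerase ribozyme was represented by a PCR-built, transcribed mutant library that underwent triplicate single-round in vitro selection with frozen incubation at −7 °C. Extended constructs were recovered by gel excision, streptavidin-bead capture and RT-PCR, and Illumina sequencing of input and output libraries kept genotypes with ≥10 input reads and ≥1 read per output. Fitness is the logarithm of genotype enrichment relative to wild-type enrichment, from inverse-variance-weighted replicate averages, with a logarithm base of 2.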
Turning to GACCAAUCGGCGCUCAGAGCUCGAGAACAUCUUCGGAUGCAGAGGAGGCAGGCUUCGGUGGCGCGAUAGCGCCAACGUCCUCAACCUCCACUGCAUCCCACCACAUGAUGAUGCCUGAAGAGCCUUCGAUUUUUG [U9G C12G A91C G127C U129A], the “polymerase ribozyme fitness (log ratio)” value is -2.32.

GACCAAUCGGCCCUCAGAGCUCGAGAACAUCUUCGGAUGCAGAGGAGGCAGGCUUCGGUGGCGCGAUAGCGCCAACGUCCUCAACCUCCAAUGCAUCCCUCCACAUGAUGAUGCCUGAAGAGCCUUGAUUUUUUG [U9G A100U G128A]: the “polymerase ribozyme fitness (log ratio)” value is -1.71.

For the variant GACCAAUCGGCCCUCAGAGCUCGAGAACAUCUUCGGAUGCAGAGGAGGCCGGCUUCGGUGGCCCGAUAGCGCCAACGUCCUCAACCUCCAAUGCAUCCCACCACAUGAUGAUGCCUGAAGAGCCUUGGUUUUUUG [U9G A50C G63C], the “polymerase ribozyme fitness (log ratio)” value was -1.21.

In the case of GACCAAUCGGCCCUCAGAGCUCGAGAACAUCUUCGGAUGCAGAGGAGGCAGGCUUCGGUGGCGCGAUAGCGCCAACGUCCUCACCCUCCAAUGCAUCACACCACAUGAUGAUGCCUGAAGAGACUUGGUUUUUUG [U9G A84C C98A C123A], the “polymerase ribozyme fitness (log ratio)” value was -4.03.

GACCAAUCGGCCCUCAGAGCUCGAGAACAUCUUCGGAUGCAGAGGAGGCAGGCUUCGGUGGCGCGAUAGCGCCAACGUCCUCCAUCUCCAAUGCAUCCCACCACAUGAUGAUGCCUGAAGCGCCUUGGUCUUUUG [U9G A83C C85U A121C U130C]: the “polymerase ribozyme fitness (log ratio)” value came to 1.97.

Consider GACCAAUCGGCCCUCAGAGCUCGAGAACAUCUUCGGAUGCAGAGGAGGCAGGCUUCGGUGGCGCGAUAGCGCCAACGUCCUCAACCUCCAAUGCAUCCCACCUCAUGAUGAUGCCUGAAGAGCCUUGGUUUUUUG [U9G A103U], for which the “polymerase ribozyme fitness (log ratio)” value is -4.16.

Consider GACCAAUCGGGCCUCAGAGCUCGAGAACAUCUUCGGAUGCAGAGGAGGCAGGCUUCGGUGGCGCGAUAGCGCCAACGUCCUCAACCUCCAAUGUAUCCCACCACAUGAUGCUGCCUGAAGAGCCUUGGUUUUUUG [U9G C11G C94U A111C], for which the “polymerase ribozyme fitness (log ratio)” value is -4.33.

Regarding GACCAAUCGGCGCUCAGAGCUCGAGAACAUCUUCGGAUGCAGAGGAGGCAGGCUUCGGUGGCGCGAUAGCGCCAACGCCCUCAACCUCCAAUGCAUCCCACCACAUGAUGAUGCCUGAAGAGCCUUGGUUUUUUG [U9G C12G U78C], the “polymerase ribozyme fitness (log ratio)” value came out at 0.323.

Take GACCAAUCGGCCCUCAGAGCUCGAGAACAUCUUCGGAUGCAGAGGAGGCAGGCUUCGGUGGCGCGAUAGCGCCAACGUCCUCAACCUCCAAUGCAUCCCACCACAUGAUGAUGCCUGUAUAACCUUGGUUUUUUG [U9G A118U G120U G122A]: the “polymerase ribozyme fitness (log ratio)” value was 1.52.

As to GACCAAUCGGCCCUCAGAGCUCGAGAACAUCUUCGGAUGCAGUGGAGGCAGUCUUCGGUGGCGCGAUAGCGACAACGUCCUAAACCUCCAAUGCAUCCCACCACAUGAUGAUGCCUGAAGAGCCUUGGUUUUUUG [U9G A43U G52U C72A C82A], the “polymerase ribozyme fitness (log ratio)” value is -2.31.

Regarding GACCAAUCGGGCCUCAGAGCUCGAGAACAUCUUCGGAUGCAGAGGAGGCAGGCUUCGGUGGCGCGAUAGCGCCAACGUCCUCAACCUCCAAUGCAUCCCACCACAUGAUGAUGCCUGAAGAGCCUUGGUUUUUUG [U9G C11G], the “polymerase ribozyme fitness (log ratio)” value is -4.02.

With GACCAAUCGGCGCUCAGAGCUCGAGAACAUCUUCGGAUGCAGAGGAGGCAGGCUUCGGUUGCGCGAUAGCGCCAACGUCCUCAACCUCCAAUGCAUCCCACCACAUGAUGAUGCCUGAAGAGCCUUGGUUUUUUG [U9G C12G G60U], the “polymerase ribozyme fitness (log ratio)” value was 0.216.

As for GACCAAUCGGCCCUCAGAGCUCGAGAACAUCUUCGGAUGCAGGGGAGGAAGGCUUCGGUGGCGCGAUAGCGCCAACGUCCACAACCUCCAAUGCAUCCCACCACAUGAUGAUGCCUGAAGAGCCUUUGUUUUGUG [U9G A43G C49A U81A G127U U133G], the “polymerase ribozyme fitness (log ratio)” value is -2.11.

Turning to GACCAAUCGGCCCUCAGAGCUCGAGAACAUCUUCGGAUGCAGAGGAGGCAGGCUUCGGUGGCGCGCUAGCGCCAACGUCCUCAACCUCCAAUGCAUCCCACCAUAUGAUGAUGCCUGAAGAGCCUUGGUUUUUUG [U9G A66C C104U], the “polymerase ribozyme fitness (log ratio)” value is -0.809.

Regarding GACCAAUCGGCCCUCAGAGCUCGAGAACAUCUUCGGUUGCACAGGAGGCAGGCUUCGGUGGCGCGAUAGCGCCAACGUCCUCAACAUCCAAUGCAUCCCACCACAUGAUGAAGCCUGAAGAGCCUUGGUUUUUUG [U9G A37U G42C C86A U112A], the “polymerase ribozyme fitness (log ratio)” value was -2.41.

Consider GACCAAUCGGACCUCAGAGCUCGAGAACAUCUUCGGAUGCAGAGGAGGCAGGCGUCGGUGGCGCGAUAGCGCCAACGUCCUCAACCUCCAAUGCAUCCCACCACAUGAUGAUGCCUGAAGAGCCUUGGUUUUUUG [U9G C11A U54G], for which the “polymerase ribozyme fitness (log ratio)” value was -0.122.

With GACCAAUCGGCCAUCAGAGCUCGAGAACAUCUUCGGAUGCAGAGGAGGCAGGCUUCGGUGGCGCGAUAGCGCCAACGUCCUCAACCUCCAAUGCAUCCCACCACAUGAUGAUGCCUGAAGAGCCUUGGUUUUUUG [U9G C13A], the “polymerase ribozyme fitness (log ratio)” value was -0.971.

On to GACCAAUCGGCCCUCAGAGCUCGAGAACAUCUUCGGUUGUAGAGAAGGCAGGCUUCGGUGGCGCGAUAGCGCCAACGUCCUCAACCUCCAAUGCAUCCCACCAUAUGAUGAUGCCUGAAGAGCCUUGGUUUUUUG [U9G A37U C40U G45A C104U], for which the “polymerase ribozyme fitness (log ratio)” value was -0.895.

On to GACCAAUCGGCCCUCAGAGCUCGAGAACAUCUUCGGUUGCAAAGCAGGCAGGCUUCGGUGGCGCGAUAGCGCCAACGUCCUCAACCUCCAAUGCGUCCCACCACAUGAUGAUGCCUGAAGAGCCUUGGUUUUUUG [U9G A37U G42A G45C A95G], for which the “polymerase ribozyme fitness (log ratio)” value is -3.58.

GACCAAUCGGCCCUCAGAGCUCGAGAACAUCUUCGGAUGCAGAGGUGGCAGGCUUCGGUUGCGCGAUAGCGCCAACGUCCUCAACCUCCACUGCAUCCCACCACAUGAUGAUGCCUAAAGAGCCUUGGUUUUUUG [U9G A46U G60U A91C G117A]: the “polymerase ribozyme fitness (log ratio)” value is -0.876.

Take GACCAAUCGGCCCUCAGAGCUCGAGAACAUCUUCGGAUGCUGAGGAGGCAGGCUUCGGUGGCGCGAUAGCGCCAACGUCCUCAACCUCCAAUGCCUCCCACCACAUGAUGAUGCCUGAAGAGCCUUGGUUUUUUG [U9G A41U A95C]: the “polymerase ribozyme fitness (log ratio)” value was -2.53.
